From paper PMC11098746 (2024)

Experiments:
Test in all cases: AVEXIS screen signal:noise (double-corrected)
[1] = molecular target: ADP099
[2] = molecular target: T1, ADP293
T1 chain: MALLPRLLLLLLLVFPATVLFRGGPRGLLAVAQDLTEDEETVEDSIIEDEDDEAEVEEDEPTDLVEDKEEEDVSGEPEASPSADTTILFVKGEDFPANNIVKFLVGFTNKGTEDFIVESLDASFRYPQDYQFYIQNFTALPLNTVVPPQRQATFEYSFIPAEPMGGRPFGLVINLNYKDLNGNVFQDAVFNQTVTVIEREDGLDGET

[3] = molecular target: T2, ADP106
T2 chain: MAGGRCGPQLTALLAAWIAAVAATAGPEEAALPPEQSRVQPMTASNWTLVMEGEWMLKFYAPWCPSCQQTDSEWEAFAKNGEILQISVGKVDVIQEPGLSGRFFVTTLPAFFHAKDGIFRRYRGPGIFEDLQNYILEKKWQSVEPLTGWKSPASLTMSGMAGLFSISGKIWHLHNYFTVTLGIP

[4] = molecular target: ADP386
[5] = molecular target: T3, ADP279
T3 chain: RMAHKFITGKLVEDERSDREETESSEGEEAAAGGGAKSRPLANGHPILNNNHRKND

[6] = molecular target: T4, ADP096
T4 chain: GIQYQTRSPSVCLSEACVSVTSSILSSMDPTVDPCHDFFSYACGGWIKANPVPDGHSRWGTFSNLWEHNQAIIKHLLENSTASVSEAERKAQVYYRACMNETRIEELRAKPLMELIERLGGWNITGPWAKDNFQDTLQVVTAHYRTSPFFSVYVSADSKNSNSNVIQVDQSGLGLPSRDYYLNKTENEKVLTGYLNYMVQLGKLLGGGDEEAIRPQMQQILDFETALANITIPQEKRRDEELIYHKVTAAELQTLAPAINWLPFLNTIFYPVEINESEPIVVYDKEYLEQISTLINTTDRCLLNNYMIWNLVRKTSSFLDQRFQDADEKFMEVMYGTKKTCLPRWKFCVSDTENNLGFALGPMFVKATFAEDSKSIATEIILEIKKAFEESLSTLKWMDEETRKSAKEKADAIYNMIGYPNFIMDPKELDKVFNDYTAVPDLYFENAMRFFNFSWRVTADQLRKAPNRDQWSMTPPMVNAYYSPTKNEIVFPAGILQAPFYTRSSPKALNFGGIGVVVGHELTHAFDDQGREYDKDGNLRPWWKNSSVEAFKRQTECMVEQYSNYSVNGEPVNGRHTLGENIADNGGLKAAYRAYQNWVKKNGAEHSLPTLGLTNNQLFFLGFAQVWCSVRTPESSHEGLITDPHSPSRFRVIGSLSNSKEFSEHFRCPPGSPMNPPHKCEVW

[7] = molecular target: T5, ADP269
T5 chain: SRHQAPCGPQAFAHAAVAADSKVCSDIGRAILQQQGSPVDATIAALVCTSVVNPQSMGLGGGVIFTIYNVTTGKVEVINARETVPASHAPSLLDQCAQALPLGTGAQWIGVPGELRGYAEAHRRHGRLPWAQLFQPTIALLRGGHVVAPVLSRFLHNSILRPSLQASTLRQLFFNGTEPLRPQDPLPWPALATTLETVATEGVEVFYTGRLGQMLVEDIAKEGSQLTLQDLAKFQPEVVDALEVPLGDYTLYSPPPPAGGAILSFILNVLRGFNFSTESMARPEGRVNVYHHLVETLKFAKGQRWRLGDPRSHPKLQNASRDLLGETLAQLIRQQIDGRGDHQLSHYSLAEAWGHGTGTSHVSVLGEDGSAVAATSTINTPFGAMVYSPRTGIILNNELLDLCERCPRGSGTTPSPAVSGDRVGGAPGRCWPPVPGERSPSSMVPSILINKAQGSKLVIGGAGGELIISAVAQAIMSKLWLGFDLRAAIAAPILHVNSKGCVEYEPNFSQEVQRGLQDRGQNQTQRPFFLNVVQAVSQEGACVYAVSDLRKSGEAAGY

[8] = molecular target: T6, ADP385
T6 chain: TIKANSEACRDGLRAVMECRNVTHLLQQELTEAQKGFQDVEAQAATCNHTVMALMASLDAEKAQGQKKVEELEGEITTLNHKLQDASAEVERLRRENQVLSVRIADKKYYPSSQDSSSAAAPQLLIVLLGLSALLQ

[9] = molecular target: T7, ADP264
T7 chain: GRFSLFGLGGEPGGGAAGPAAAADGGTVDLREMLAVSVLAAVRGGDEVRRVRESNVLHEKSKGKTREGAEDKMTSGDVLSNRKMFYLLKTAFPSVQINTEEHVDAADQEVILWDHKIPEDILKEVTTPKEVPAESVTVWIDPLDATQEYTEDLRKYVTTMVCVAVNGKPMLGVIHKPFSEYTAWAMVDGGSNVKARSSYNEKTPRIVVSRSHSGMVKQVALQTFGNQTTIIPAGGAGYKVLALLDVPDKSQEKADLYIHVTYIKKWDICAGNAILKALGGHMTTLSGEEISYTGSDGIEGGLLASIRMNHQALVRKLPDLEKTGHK

Chain of ADP099 (P02786 89-760): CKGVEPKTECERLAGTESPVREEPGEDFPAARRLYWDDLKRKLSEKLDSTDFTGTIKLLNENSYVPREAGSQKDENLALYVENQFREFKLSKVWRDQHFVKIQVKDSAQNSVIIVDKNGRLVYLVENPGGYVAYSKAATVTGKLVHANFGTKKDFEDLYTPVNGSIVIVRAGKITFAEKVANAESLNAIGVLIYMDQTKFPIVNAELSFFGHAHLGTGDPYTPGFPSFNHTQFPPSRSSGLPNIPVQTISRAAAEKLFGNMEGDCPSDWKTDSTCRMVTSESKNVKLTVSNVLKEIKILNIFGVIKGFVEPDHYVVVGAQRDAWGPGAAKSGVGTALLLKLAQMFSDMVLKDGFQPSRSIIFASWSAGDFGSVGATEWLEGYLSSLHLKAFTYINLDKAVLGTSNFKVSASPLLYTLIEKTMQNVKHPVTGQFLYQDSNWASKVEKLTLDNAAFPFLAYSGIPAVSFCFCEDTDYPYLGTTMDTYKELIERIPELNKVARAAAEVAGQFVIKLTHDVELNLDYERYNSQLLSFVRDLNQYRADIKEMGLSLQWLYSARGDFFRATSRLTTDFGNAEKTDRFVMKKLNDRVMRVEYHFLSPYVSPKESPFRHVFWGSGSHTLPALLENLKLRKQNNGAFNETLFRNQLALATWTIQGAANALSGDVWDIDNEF

B1: ADP237 (protein)
chain: TKKKVSVSEINFDSAVDDVQWCGNNHMTVLVKTVKGRLYRSSDGGKIWTNIAGNLADKENNKADPSSNHMNEMTTVDLIMVNSVNKNIVLIIGNQKNHYISEDSGETFRLLNYQNKINFWQFHSTKTHWALVSSWTEACYSNDDNSGECMQTLSLTKDLGRTFQLIDIYVVQFNWGDKESHLEDTIYYTRHKNRNGHQQRFSGWSKDVDFVATHNFGKSVDVLVKQGNKFLISNGYIFVAKLNDVIKQTVNMMVSTDGGKTFNKANLPENIHEKSYTVLDTSEGSIMLHVNHGTSSEKINTGNVYISDASGLNYALSLPNNIRTSSGECEFDRVLSLDGVYIANFLDVNNEIKDEDLRFQNFKSAIEEDIAPFETNTEKRKKQYNKGKNEDAVRTVISFNKGGEWSYLKAPKVDSRGNKYECGDNCYLHLHGITNYHQYAPFYSIENAVGIIMGTGNVGSHLRYESDEVNTFLSRDGGVTWIEAHKGPYIYEYGDYGGLIVMADDLRKTNQIVFSWNEGQSWFDFELGQFSIDVDNIVAEPNSASVEFLVYGTRNDVGVLYHLDFNALGQPLCKGLWAADSVSSDYETWSPTSGNFNDKCILGRKITYTRRKQTSECFNGKDLKRTVDKKPCECTPEDYECETGFTRKIGSYECKPNDPTLTIEGCTSSSYFYANAYRKVPGDICVNGWVPEKVPVPCPSYAPFNKAAK
modifications: bait human Fc-tagged dimer; N-glycosylation sequons mutated in Plasmodium baits
Question: With B1 as the binder, how does the binding score [1] read?
Answer: 5.11

Question: And the binding score [2]?
Answer: 11.1

Question: What about the binding score [3] of the same binder?
Answer: 10.3

Question: What about the binding score [4] of the same binder?
Answer: 19.2

Question: And the binding score [5]?
Answer: 12.8

Question: And the binding score [6]?
Answer: 16.2

Question: And the binding score [7]?
Answer: 10.4

Question: And the binding score [8]?
Answer: 5.45

Question: What about the binding score [9] of the same binder?
Answer: 9.43
